According to US20220340682A1 (Sanofi, published 2022):

T1: cCEACAM5 A3B3, M. fascicularis CEACAM5 A3-B3 domain (499-688) (Macaca fascicularis)
T1 construct: Followed by 24 amino acid extension containing a His-Tag; also called cynomolgus CEACAM5 A3-B3
T1 chain: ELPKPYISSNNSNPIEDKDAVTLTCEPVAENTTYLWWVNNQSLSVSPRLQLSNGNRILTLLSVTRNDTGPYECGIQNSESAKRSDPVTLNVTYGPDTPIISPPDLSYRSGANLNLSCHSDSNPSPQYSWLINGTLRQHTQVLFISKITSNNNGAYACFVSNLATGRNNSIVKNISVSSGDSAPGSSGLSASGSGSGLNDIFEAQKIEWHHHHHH

T2: cCEACAM5, M. fascicularis CEACAM5 ECD (35-688) (Macaca fascicularis)
T2 construct: ECD followed by a 24 amino acid extension containing a His-Tag; also called cynomolgus CEACAM5; monkey CEACAM5
T2 chain: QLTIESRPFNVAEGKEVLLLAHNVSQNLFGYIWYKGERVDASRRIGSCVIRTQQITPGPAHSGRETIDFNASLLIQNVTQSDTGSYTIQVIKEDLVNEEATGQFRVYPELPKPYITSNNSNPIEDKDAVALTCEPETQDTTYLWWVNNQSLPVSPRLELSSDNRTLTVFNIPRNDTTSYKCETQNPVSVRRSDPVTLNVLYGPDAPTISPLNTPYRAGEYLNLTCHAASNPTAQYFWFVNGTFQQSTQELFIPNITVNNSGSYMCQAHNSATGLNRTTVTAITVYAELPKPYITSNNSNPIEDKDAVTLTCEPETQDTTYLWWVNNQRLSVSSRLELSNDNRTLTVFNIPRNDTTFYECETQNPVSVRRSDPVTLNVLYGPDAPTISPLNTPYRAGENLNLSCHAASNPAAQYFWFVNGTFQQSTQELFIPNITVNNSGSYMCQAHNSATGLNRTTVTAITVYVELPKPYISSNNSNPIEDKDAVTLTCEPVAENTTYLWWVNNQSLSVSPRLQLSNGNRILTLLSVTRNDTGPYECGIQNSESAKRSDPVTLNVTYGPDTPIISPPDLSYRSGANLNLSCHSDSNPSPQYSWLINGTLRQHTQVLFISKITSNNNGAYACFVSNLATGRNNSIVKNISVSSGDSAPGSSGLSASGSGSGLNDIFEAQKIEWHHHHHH

T3: cCEACAM8, M. fascicularis CEACAM8 ECD (35-332) (Macaca fascicularis)
T3 construct: With 24 amino acid extension containing a His-Tag; also called cynomolgus CEACAM8
T3 chain: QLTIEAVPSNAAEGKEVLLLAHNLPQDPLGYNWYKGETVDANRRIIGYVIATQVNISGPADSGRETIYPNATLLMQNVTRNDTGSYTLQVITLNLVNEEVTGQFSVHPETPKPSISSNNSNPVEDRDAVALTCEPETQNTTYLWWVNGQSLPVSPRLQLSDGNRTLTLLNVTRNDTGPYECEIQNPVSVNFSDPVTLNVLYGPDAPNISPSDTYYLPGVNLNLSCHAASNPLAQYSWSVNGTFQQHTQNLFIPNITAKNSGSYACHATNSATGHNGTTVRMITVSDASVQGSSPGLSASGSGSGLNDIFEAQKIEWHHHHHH

T4: cCEACAM1, M. fascicularis CEACAM1 ECD (35-428) (Macaca fascicularis)
T4 construct: With 24 amino acid extension containing a His-Tag; also called cynomolgus CEACAM1
T4 chain: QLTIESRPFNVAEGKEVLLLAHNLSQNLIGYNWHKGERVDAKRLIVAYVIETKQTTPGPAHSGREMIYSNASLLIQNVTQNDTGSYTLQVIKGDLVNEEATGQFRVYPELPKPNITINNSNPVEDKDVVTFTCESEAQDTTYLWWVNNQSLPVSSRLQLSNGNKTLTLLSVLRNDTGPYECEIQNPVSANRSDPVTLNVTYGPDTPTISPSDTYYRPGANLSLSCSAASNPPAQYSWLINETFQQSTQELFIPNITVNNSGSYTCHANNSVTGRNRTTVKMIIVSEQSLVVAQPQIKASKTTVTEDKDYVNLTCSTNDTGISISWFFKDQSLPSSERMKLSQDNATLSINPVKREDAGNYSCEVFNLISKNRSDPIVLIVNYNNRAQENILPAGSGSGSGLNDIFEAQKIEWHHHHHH

T5: cCEACAM6, M. fascicularis CEACAM6 ECD (35-327) (Macaca fascicularis)
T5 construct: With 24 amino acid extension containing a His-Tag; also called cynomolgus CEACAM6
T5 chain: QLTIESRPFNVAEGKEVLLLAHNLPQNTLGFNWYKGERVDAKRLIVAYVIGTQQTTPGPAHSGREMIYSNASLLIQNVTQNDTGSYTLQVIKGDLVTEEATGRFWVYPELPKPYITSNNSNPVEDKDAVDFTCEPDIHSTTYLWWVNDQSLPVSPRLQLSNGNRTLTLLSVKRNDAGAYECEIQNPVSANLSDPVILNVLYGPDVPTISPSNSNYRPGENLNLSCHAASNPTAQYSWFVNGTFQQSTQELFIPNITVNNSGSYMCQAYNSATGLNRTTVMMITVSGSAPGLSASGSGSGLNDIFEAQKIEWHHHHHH


Tests used:
[1] = target: T1, cCEACAM5 A3B3, M. fascicularis CEACAM5 …; assay: ELISA on coated recombinant CEACAM5 protein or domain, anti-mouse IgG-HRP, OD 450 nm
Protocol: Domain mapping of anti-CEACAM5 antibodies to human CEACAM5 and cynomolgus CEACAM5 proteins was determined by ELISA. […] Purified antibodies were added to the plates and detected by using rabbit anti-mouse IgG conjugated with horseradish peroxidase (Sigma; #A9044). Antibody binding was visualized by adding TMB-H2O2 buffer and read at a wavelength of 450 nm.

[2] = target: T2, cCEACAM5, M. fascicularis CEACAM5 ECD …; assay: ELISA
[3] = target: T3, cCEACAM8, M. fascicularis CEACAM8 ECD …; assay: ELISA
[4] = target: T4, cCEACAM1, M. fascicularis CEACAM1 ECD …; assay: ELISA
[5] = target: T5, cCEACAM6, M. fascicularis CEACAM6 ECD …; assay: ELISA

Row | Binder | binding result [1] | percentage of binding compared to full binding with cynomolgus CEACAM5 [2] | percentage of binding compared to full binding with cynomolgus CEACAM5 [3] | percentage of binding compared to full binding with cynomolgus CEACAM5 [4] | percentage of binding compared to full binding with cynomolgus CEACAM5 [5]
1 | antibody MAb1 (antibody, IgG1, V domains shown) VH: EVMLVESGGGLVKPGGSLKLSCAASGFTFSSYAMSWVRQTPEKRLEWVATISSGGSYIYYLDSVKGRFTISRDNAKNTLYLQMSSLRSEDTAMYYCARPAYYGNPAMDYWGQGTSVTVSS VL: DILMTQSQKFMSTSVGDRVSVTCKASQNVGTNVAWYQQKPGQSPKPLIYSASYRYSGVPDRFTGSGSGTDFTLTISNVQSEDLAEYFCQQYNSYPLYTFGGGTKLEIK | binds | – | – | – | –
2 | antibody MAb3 (antibody, IgG1, V domains shown, Murine monoclonal from hybridoma, IgG1, kappa) VH: EVKLVESGGGLVKPGGSLTLPCAASGFTFSRYAMSWVRQTPEKRLEWVASISSGGDTYYPDSVKGRFTVSRDNARNILFLQMSSLRSEDTGMYYCARVNYYDSSFLDWWGQGTTLTVSS VL: DIVMTQSQRFMSTLEGDRVSVTCKASQNVGTNVAWYQQKPGQSPKALIYSASYRYSGVPDRFTGSGSGTDFTLTISNVQSEDLAEYFCQQYNNYPLYTFGGGTKLEIK | binds | – | – | – | –
3 | antibody MAb4 (antibody, IgG1, V domains shown, Murine monoclonal from hybridoma, IgG1, kappa) VH: EVQLVESGGGLVKPGGSLKLSCAASGFTFSSYDMSWVRQTPEKRLEWVAFISSYGGRTYYADTVKGRFTISRDNAKNTLYLQMSSLKSEDTAMFYCAAHYFGTSGPFAYWGQGTLVTVSA VL: DIQMTQSPASLSASVGETVTITCRASENIYSYFAWYQQKQGKSPQLLVYNAKILAEGVPSRFSGSGSGTQFSLKINSLQPEDFGTYYCQHHYGIPFTFGSGTKLELK | binds | – | – | – | –
4 | antibody MAb5 (antibody, IgG1, V domains shown, Murine monoclonal from hybridoma, IgG1, kappa) VH: ELQLVESGGVLVKPGGSLKLSCAASGFAFSSYDMSWVRQTPEKRLEWVTYINSGGGITYYPDTVKGRFTISRDNARNTLYLQMSSLKSEDTAIYYCTAHYFGSSGPFAYWGQGTLVTVSA VL: DIQMTQSPASLSASVGETVTITCRASENIYSYLAWYQQKQGKSPQLLVYNAKTLTEGVPSRFSGSGSGTQFSLKINSLQPEDFGSYYCQHHYGTPFTFGSGTKLEIK | binds | – | – | – | –
5 | huMAb2-3 (antibody, human IgG1, kappa, V domains shown, Humanized MAb2, human IgG1 / Ckappa; also called MAb2_VL1cVH1a-IgG1) VH: EVQLQESGPGLVKPGGSLSLSCAASGFVFSSYDMSWVRQTPERGLEWVAYISSGGGITYAPSTVKGRFTVSRDNAKNTLYLQMNSLTSEDTAVYYCAAHYFGSSGPFAYWGQGTLVTVSS VL: DIQMTQSPASLSASVGDRVTITCRASENIFSYLAWYQQKPGKSPKLLVYNTRTLAEGVPSRFSGSGSGTDFSLTISSLQPEDFATYYCQHHYGTPFTFGSGTKLEIKR | – | 100% | 1.2% | 0.3% | 0.4%
6 | huMAb2-4 (antibody, human IgG1, kappa, V domains shown, Humanized MAb2, human IgG1 / Ckappa; also called MAb2_VL1d VH1-IgG1; MAb2_VL1dVH1-IgG1) VH: EVQLQESGPGLVKPGGSLSLSCAASGFVFSSYDMSWVRQTPERRLEWVAYISSGGGITYFPSTVKGRFTVSRDNAKNTLYLQMNSLTSEDTAIYYCAAHYFGSSGPFAYWGQGTLVTVSA VL: DIQMTQSPASLSASVGDTVTITCRASENIFSYLAWYQQKPGKSPKLLVYNTRTLAEGVPSRFSGSGSGTQFSLTISSLQPEDFGSYYCQHHYGTPFTFGSGTKLEIKR | – | 100% | 3.2% | 0.3% | 0.3%
7 | chMAb2 (antibody, human IgG1, kappa, V domains shown, Chimeric, human IgG1, Ck isotype; also called MAb2-IgG1; chimeric MAb2) VH: EVQLQESGGVLVKPGGSLKLSCAASGFVFSSYDMSWVRQTPEKRLEWVAYISSGGGITYFPDTVQGRFTVSRDNAKNTLYLQMNSLKSEDTAIYYCAAHYFGSSGPFAYWGQGTLVTVSA VL: DIQMTQSPASLSASVGETVTITCRASENIFSYLAWYQQKQGKSPQLLVYNTKTLAEGVPSRFSGSGSGTQFSLKINSLQPEDFGSYYCQHHYGTPFTFGSGTKLEIKR | – | 100% | 1.2% | 0.2% | 0.3%
8 | huMAb2-1 (antibody, V domains shown, Humanized MAb2 (VL1 + VH1) fused to human IgG1 and human Ckappa constant domains; also called MAb2_VL1VH1-IgG1; MAb2VL1VH1-IgG1) VH: EVQLQESGPGLVKPGGSLSLSCAASGFVFSSYDMSWVRQTPERRLEWVAYISSGGGITYFPSTVKGRFTVSRDNAKNTLYLQMNSLTSEDTAIYYCAAHYFGSSGPFAYWGQGTLVTVSA VL: DIQMTQSPASLSASVGDTVTITCRASENIFSYLAWYQQKPGKSPKLLVYNTKTLAEGVPSRFSGSGSGTQFSLTISSLQPEDFGSYYCQHHYGTPFTFGSGTKLEIK | – | 100% | 3.6% | 0.3% | 0.3%
9 | huMAb2-2 (antibody, V domains shown, Humanized MAb2 (VL1a + VH1a) fused to human IgG1 and human Ckappa constant domains; also called MAb2_VL1aVH1a-IgG1; MA2_VL1aVH1a-IgG1) VH: EVQLQESGPGLVKPGGSLSLSCAASGFVFSSYDMSWVRQTPERGLEWVAYISSGGGITYAPSTVKGRFTVSRDNAKNTLYLQMNSLTSEDTAVYYCAAHYFGSSGPFAYWGQGTLVTVSS VL: DIQMTQSPASLSASVGDRVTITCRASENIFSYLAWYQQKPGKSPKLLVYNTKTLAEGVPSRFSGSGSGTDFSLTISSLQPEDFATYYCQHHYGTPFTFGSGTKLEIK | – | 100% | 0.9% | 0.3% | 0.3%
